Results from patent publication US20250074984A1.

Legend:
FcγRIIβ [1] = molecular target: FcγRIIβ (UniProt P31994); assay: ratio of the chip-kinetics KDs on Hu FcgRIIA_R167 and Hu FcgRIIB
FcγRIIβ [2] = molecular target: FcγRIIβ (UniProt P31994); assay: ratio of the chip-kinetics KDs on Hu FcgRIIB and Hu FcgRIIA_R167
FcγRIIβ [3] = molecular target: FcγRIIβ (UniProt P31994); assay: chip kinetics; antibody captured on protein A/G, receptor injected as analyte
[4] = molecular target: human FcγRIIα_R167 (human) (UniProt P12318); assay: as above
Chain of human FcγRIIα_R167 (human) (P12318 36-218 H167R): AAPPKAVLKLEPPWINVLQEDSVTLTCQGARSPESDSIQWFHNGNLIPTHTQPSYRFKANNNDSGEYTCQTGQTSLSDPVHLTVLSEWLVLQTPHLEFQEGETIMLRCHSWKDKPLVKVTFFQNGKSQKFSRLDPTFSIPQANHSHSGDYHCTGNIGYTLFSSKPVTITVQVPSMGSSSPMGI

[5] = molecular target: human FcγRIIα_H167 (human) (UniProt P12318); assay: as above
Chain of human FcγRIIα_H167 (human) (P12318 36-218): as the sequence (P12318 36-218 H167R) above, with R132H counted along it

Chain of FcγRIIβ (P31994 46-217): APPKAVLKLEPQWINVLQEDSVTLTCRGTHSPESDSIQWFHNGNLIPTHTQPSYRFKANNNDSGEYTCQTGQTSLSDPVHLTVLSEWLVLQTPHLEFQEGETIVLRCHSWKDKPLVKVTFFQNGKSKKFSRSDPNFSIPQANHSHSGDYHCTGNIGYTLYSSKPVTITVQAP

Row | Ratio iia/iib (KD human iia R/KD human iib) (FcγRIIβ [1]) | Ratio iib/iia (KD human iib/KD human iia R) (FcγRIIβ [2]) | Fold = KD(IgG WT)/KD(variants) (FcγRIIβ [3]) | Kd (FcγRIIβ [3]) | Fold = KD(IgG WT)/KD(variants) [4] | Kd [5] | Kd [4] | Substance
1 | 3.12 | 0.32 | 3.18 fold | 1600 nM | < 0.3 fold |  |  | IgG1 P238D (antibody)
2 |  |  |  |  |  | 1000 nM | 1550 nM | IgG1 WT (antibody)
